According to IntAct's records for PubMed 10446210:

B1: "Na(+)/H(+) exchange regulatory cofactor NHE-RF1" (Oryctolagus cuniculus (Rabbit)), Q28619 (parent)
chain: MSADAAAGAPLPRLCCLEKGPNGYGFHLHGEKGKVGQYIRLVEPGSPAEKAGLLAGDRLVEVNGENVEKETHQQVVSRIRAALNAVRLLVVDPDTDEQFRKLGVQIRGELLRAQAGPEQAGPPAAPGEQGPAGENEPREVEKSHPERRELRPRLCAMKKGPNGYGFNLHSDKSRPGQFIRAVDPDSPAEASGLREQDRIVEVNGVCVEGKQHGDVVTAIKAGGDEAKLLVVDKETDEFFKKCKVVPSSEHLNGPLPEPFTNGEIQKNNPETLAPAASESPRPALARSASSDTSEELASQDSPKKEDSTAPSSTSSSSDPILDFSISLAVAKERAHQKRSSRRAPQMDWSEKKELFSNL

Variants of: B1
Details: with Grk6, O70293-1
Grk6, O70293-1, sequence (O70293 whole entry): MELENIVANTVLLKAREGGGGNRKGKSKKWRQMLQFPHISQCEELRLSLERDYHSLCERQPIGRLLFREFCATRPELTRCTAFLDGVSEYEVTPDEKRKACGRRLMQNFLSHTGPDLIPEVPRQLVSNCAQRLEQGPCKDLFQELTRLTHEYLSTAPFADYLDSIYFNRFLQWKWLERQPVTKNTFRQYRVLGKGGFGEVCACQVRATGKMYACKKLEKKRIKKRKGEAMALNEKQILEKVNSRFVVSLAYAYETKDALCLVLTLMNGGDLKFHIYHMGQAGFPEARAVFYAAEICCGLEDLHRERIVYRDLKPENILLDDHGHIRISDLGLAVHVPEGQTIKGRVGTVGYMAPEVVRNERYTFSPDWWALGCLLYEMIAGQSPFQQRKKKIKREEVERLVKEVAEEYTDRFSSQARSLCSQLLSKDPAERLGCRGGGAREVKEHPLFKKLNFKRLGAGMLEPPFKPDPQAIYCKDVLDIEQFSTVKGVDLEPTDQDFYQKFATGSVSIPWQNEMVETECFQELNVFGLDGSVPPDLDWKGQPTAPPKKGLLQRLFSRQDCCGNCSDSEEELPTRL

Row | effect of a mutation on the interaction | Variant
1 | decreasing interaction | K158A
2 | decreasing interaction | K159A

Variants of: B1
Details: with Grk6, O70293-1
Remark: another data set of the same source

Row | effect of a mutation on the interaction | Variant
3 | disrupting interaction | S289A
